Test results taken from the supplement of paper PMC9112550, “Optimization of the antimicrobial peptide Bac7 by deep mutational scanning” (BMC Biology, 2022).

Test system: Escherichia coli TOP10
Assay: shrunken log2 fold change of peptide-encoding DNA abundance (4.5 h post-induction vs induction); higher = less antimicrobial activity (less host growth inhibition)
Settings: time post-induction: 4.5 h; library: site-saturation at positions 5, 18, 19, 20
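Note: peptides expressed intracellularly from a pBAD plasmid library in pooled LB shake-flask culture, induced with 0.3% L-arabinose, DNA abundance read by NGS, three biological replicates, DESeq2 with apeglm shrinkage.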

Sequence | shrunken log2 fold change
RRIRFRPPRLPRPRPRPIKTPRP | -0.0134
RRIRFRPPRLPRPRPRPFAGPRP | 0.0728
RRIRGRPPRLPRPRPRPFFVPRP | 0.246
RRIRERPPRLPRPRPRPGECPRP | -0.0577
RRIRERPPRLPRPRPRPISIPRP | -0.258
RRIRIRPPRLPRPRPRPRGDPRP | 0.389
RRIRCRPPRLPRPRPRPHVPPRP | -0.0309
RRIRVRPPRLPRPRPRPARTPRP | 0.147
RRIRRRPPRLPRPRPRPARGPRP | 0.731
RRIRFRPPRLPRPRPRPGHAPRP | 0.192
RRIRSRPPRLPRPRPRPNENPRP | -0.118
RRIRPRPPRLPRPRPRPHCTPRP | -0.479
RRIRKRPPRLPRPRPRPAIFPRP | 0.233
RRIRGRPPRLPRPRPRPNWAPRP | 0.363
RRIRLRPPRLPRPRPRPHSMPRP | -0.506
RRIRLRPPRLPRPRPRPIWCPRP | -0.0514
RRIRPRPPRLPRPRPRPQQNPRP | 0.076
RRIRLRPPRLPRPRPRPSWQPRP | -0.0855
RRIRRRPPRLPRPRPRPQSHPRP | -0.0536
RRIRARPPRLPRPRPRPSSMPRP | -0.144
RRIRVRPPRLPRPRPRPVSWPRP | 0.469
RRIRNRPPRLPRPRPRPVVLPRP | -0.179

Sequence | shrunken log2 fold change
RRIRCRPPRLPRPRPRPHEIPRP | 0.322
RRIRVRPPRLPRPRPRPNETPRP | -0.033
RRIRSRPPRLPRPRPRPCQDPRP | -0.0622
RRIRKRPPRLPRPRPRPWEFPRP | 0.504
RRIRNRPPRLPRPRPRPSSAPRP | -0.0956
RRIRVRPPRLPRPRPRPMQVPRP | 0.121
RRIRCRPPRLPRPRPRPTIIPRP | -0.343
RRIRGRPPRLPRPRPRPWLHPRP | 0.106
RRIRQRPPRLPRPRPRPCLFPRP | -0.268
RRIRCRPPRLPRPRPRPAWYPRP | -0.0055
RRIRRRPPRLPRPRPRPHFVPRP | -0.103
RRIRNRPPRLPRPRPRPFYKPRP | -0.575
RRIRGRPPRLPRPRPRPNRRPRP | 0.332
RRIRLRPPRLPRPRPRPQLVPRP | 0.144
RRIRRRPPRLPRPRPRPPNSPRP | -0.0871
RRIRGRPPRLPRPRPRPGRFPRP | 0.45
RRIRKRPPRLPRPRPRPRRIPRP | 0.339
RRIRMRPPRLPRPRPRPSEMPRP | 0.185
RRIRYRPPRLPRPRPRPWCIPRP | 0.0404
RRIRLRPPRLPRPRPRPDVPPRP | -0.284
RRIRWRPPRLPRPRPRPQQLPRP | -0.289
RRIRCRPPRLPRPRPRPCDEPRP | -0.0731

Sequence | shrunken log2 fold change
RRIRSRPPRLPRPRPRPYHMPRP | -1.26
RRIRRRPPRLPRPRPRPGQKPRP | -0.0196
RRIRKRPPRLPRPRPRPCRVPRP | 0.0931
RRIRERPPRLPRPRPRPRRFPRP | 0.158
RRIRVRPPRLPRPRPRPKFVPRP | 0.11
RRIRCRPPRLPRPRPRPVLLPRP | -0.385
RRIRIRPPRLPRPRPRPECIPRP | -0.0632
RRIRLRPPRLPRPRPRPGFDPRP | 0.137
RRIRQRPPRLPRPRPRPSVLPRP | -0.0352
RRIRHRPPRLPRPRPRPLCMPRP | -0.708
RRIRTRPPRLPRPRPRPMNYPRP | -0.949
RRIRTRPPRLPRPRPRPRIIPRP | -0.215
RRIRNRPPRLPRPRPRPWSHPRP | -0.17
RRIRSRPPRLPRPRPRPTVYPRP | 0.0113
RRIRKRPPRLPRPRPRPLGSPRP | -0.115
RRIRCRPPRLPRPRPRPHCYPRP | -0.135
RRIRRRPPRLPRPRPRPFFAPRP | 0.98
RRIRGRPPRLPRPRPRPALDPRP | 1.4
RRIRVRPPRLPRPRPRPHTDPRP | -0.141
RRIRNRPPRLPRPRPRPMRCPRP | -0.123
RRIRFRPPRLPRPRPRPHLMPRP | -0.149
RRIRLRPPRLPRPRPRPRCKPRP | 0.0707

Sequence | shrunken log2 fold change
RRIRARPPRLPRPRPRPDSIPRP | -0.0582
RRIRMRPPRLPRPRPRPCGIPRP | -0.0517
RRIRIRPPRLPRPRPRPPHDPRP | -0.0948
RRIRNRPPRLPRPRPRPFSMPRP | -0.00235
RRIRIRPPRLPRPRPRPEEPPRP | -0.0444
RRIRSRPPRLPRPRPRPRTLPRP | 0.128
RRIRERPPRLPRPRPRPQMCPRP | 0.0746
RRIRWRPPRLPRPRPRPFGYPRP | -0.0944
RRIRVRPPRLPRPRPRPPCPPRP | 0.0333
RRIRSRPPRLPRPRPRPWCAPRP | 0.0451
RRIRARPPRLPRPRPRPAMNPRP | 0.121
RRIRSRPPRLPRPRPRPWHAPRP | 0.0362
RRIRLRPPRLPRPRPRPMAIPRP | 0.11
RRIRPRPPRLPRPRPRPAYRPRP | -0.0399
RRIRARPPRLPRPRPRPNPMPRP | 0.287
RRIRTRPPRLPRPRPRPMFRPRP | -0.193
RRIRFRPPRLPRPRPRPYTCPRP | -0.22
RRIRARPPRLPRPRPRPTPNPRP | 0.602
RRIRDRPPRLPRPRPRPEAKPRP | 2.4
RRIRSRPPRLPRPRPRPFQCPRP | -0.461
RRIRTRPPRLPRPRPRPVEMPRP | -0.162
RRIRLRPPRLPRPRPRPLKKPRP | 0.162

Sequence | shrunken log2 fold change
RRIRWRPPRLPRPRPRPPYHPRP | -0.106
RRIRQRPPRLPRPRPRPPVLPRP | 0.155
RRIRFRPPRLPRPRPRPFRCPRP | -0.227
RRIRYRPPRLPRPRPRPEANPRP | -0.127
RRIRARPPRLPRPRPRPRRKPRP | 0.644
RRIRWRPPRLPRPRPRPHSIPRP | -0.143
RRIRHRPPRLPRPRPRPMLEPRP | 0.0721
RRIRYRPPRLPRPRPRPYGDPRP | -0.525
RRIRARPPRLPRPRPRPRNNPRP | -0.101
RRIRKRPPRLPRPRPRPPAMPRP | 0.635
RRIRDRPPRLPRPRPRPEWAPRP | 0.746
RRIRLRPPRLPRPRPRPIQVPRP | -0.072
RRIRIRPPRLPRPRPRPADTPRP | -0.347
RRIRLRPPRLPRPRPRPCFNPRP | -0.774
RRIRSRPPRLPRPRPRPWYQPRP | -0.314
RRIRNRPPRLPRPRPRPCNMPRP | -0.0735
RRIRTRPPRLPRPRPRPDCVPRP | -0.128
RRIRDRPPRLPRPRPRPLVTPRP | 0.486
RRIRARPPRLPRPRPRPDKHPRP | -0.0889
RRIRERPPRLPRPRPRPECFPRP | 0.435
RRIRWRPPRLPRPRPRPRNQPRP | 0.145
